Our source for the activity (% control activity) values is patent US20050202434.

This data set has as its target T1, metallo-beta-lactamase (beta-lactamase II) 5/B/6 (Bacillus cereus) (UniProt P14488).
T1 sequence: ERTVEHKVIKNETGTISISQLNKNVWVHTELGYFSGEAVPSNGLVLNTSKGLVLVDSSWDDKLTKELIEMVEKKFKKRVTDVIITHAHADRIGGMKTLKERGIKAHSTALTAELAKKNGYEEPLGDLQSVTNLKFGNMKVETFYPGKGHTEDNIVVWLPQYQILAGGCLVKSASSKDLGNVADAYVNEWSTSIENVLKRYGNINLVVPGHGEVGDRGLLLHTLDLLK
In words: inhibition.

As for “GCGCCATATGCGCGCGNNNNNNNNNNNNNNNNNNNNNNNNNNNNNNCGCGCGGAGCTCGCG [initial random 61-mer pool]”, the activity (% control activity) was 100.
“ANCNANNNTTNNNTNGNNGNNCATNNNNAA [round 16 SELEX pool (consensus 30N)]” gave an activity (% control activity) of 47.
